Here are results for 47 sequences from the NTF2 design screens of Basanta et al. (2020).

The nature of this series: protease stability score; higher = more stable; yeast display proteolysis, trypsin and chymotrypsin.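 Note: relative to predicted unfolded state with 0 unfolded-like and 1 meaning tenfold more protease.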
As to “SEEEEIARRFISVWLHAFHTGDEKRLEEMIDPHVRVDYNGVEIIGRENWIEFMLTIMRNLGFNHIRVELDHLDFQGDKMRLETTLKRKVNGREERIDTRIHVKKIDGQWIFTHELYK”, the protease stability score is 0.795.

In turn, “SEEEEIIESFMKELRESHKTGDPTAIDRLADPNTRLLVNGKQHHGWEHILRFLEDLGANHIELEFRDSHLIGDKMHIHGQLVMHINGQRVTIKTHMILSKINGRWYLEHIELR” showed a protease stability score of 1.81.

For the sequence “SEEEEILDKLVKHFIHAFRTGDEDRLNELLDPDAKLVIEYGDKRLEHHGRENVLRAWVELIERIKGVRLEWKEIRPQGDFVESRTQLIVNGREVETEVEIIMFNGRFREFTVRIR”, the protease stability score is 2.11.

On to “SEEEEILETVAKKMVDILETGDEDKLTRLADPDVRHRIDVDGRDLSYHGREEINRFMHHWKREWRIDSITVHRVHVINGQIHIDIEVRETVGDKHVIVRRELIIVIVDGRVKRVEIIFR”, for which the protease stability score came to 0.253.

Take “SEEEEILHKMAEDNIQMLQTGDEETLKRLLDPNVRIHIGEFRTHGMEKLSHWLLHLRIRDIRIHSMRIIDGVADIDGTVEIEQGDKRHTVNMRIFIIVINGKNHSFIFRWH”: the protease stability score was determined as 1.76.

Sequence “SEEEEILRHILERFANVLHTGDFDWLSKMADPHVRFDVNGREFHGREEVIQAVRDWRERLGIKHLHVKDIRLQGDKMHLNGRMEFDGVIEDTRIIHQVVDGRLRSIEIRTK” showed a protease stability score of 0.16.

Turning to “SEEEEILRHIVELLLHILITGNEHALRTLLDPNARVDINGVTIHGREQESHIILEEVERIDHMDLKIEHLHVQGDKVHTKVERTIHIGEKEIRIEEEINLVIFNGRLRVSILHVH”, the protease stability score worked out at 0.97.

Take “SEEEEILRIALEIFIHLWQTGDEDMLKHYADPEVRVHFDGRDYHGMNDLQFFVHELRKRYPGIRLHIEHVEIEVYNGRVFIIIHQRLDFNGQVITEEVRLIVIKINGRWDIHSVKYHSH”: the protease stability score amounted to 0.756.

The sequence “SEEEEILRRSVEVTLEAFKTGNERILREYLDPHVRFLYNGQEYHGWKDFVRFLINEVRRFDHVEIRLDHWEMQGEKAHFHGRLILDVNGRLEIFRVHIHLFKVDGKWTLRELRIE” showed a protease stability score of 1.83.

“SEEEEIMQRLLELMLQVFKTGDWKSLTDLLDPHVRLRIHQGDKTLHHHGREEFTERLRKLDEHLGVSRIDVRDHDMHEINGVLIIHLELRVNGRKVHVLILAEKIDGRWLLKSMHLVWH”: the protease stability score was 1.42.

In turn, “SEEEEIRLDLARLWLELVLTGDEQVYEKLADPNVRFDVNGRELHGRETWIDLLLQFKNVVKRIELKRLDVQGDFVVLDTRLRLVVNGRTETYETWIIFYVVNGRIKEVEIRTT” had a protease stability score of 1.31.

Regarding “SEEEEISKELARLWLHLFFTGNEEKLTELFDPNARLIVGDKQRHGRERVIKIFHEWLLELGIDYLDIHHIEFQGEKVHMNTKVRQGDFETRTEVNLIIVNGRIKEVRFDLR”, the protease stability score was 1.19.

In turn, “SEEEEISKTAIELMIRALHTGDWQHWLHLADPHYRVNINGREHHGREDSLRIINELLELLGVERVELRLEDFRVIDGRIHIITKMHYNGVVTDNRLIMKKVDGKWQLDTVIVT” returned a protease stability score of 1.05.

On to “SEEEEIVEKMARDLFEAMRTGDEDTLLKLLDPNVKHHWNGVEYHGWHDLHHWVERFKNMKVHFRINSVKVIGEKVHIKGELNLIFNGKIIRTDVDIHINLFNGRIKESTSDTN”, for which the protease stability score was determined as 2.04.

Sequence “SEEEEIVKRFIELLDHVMKTGDEKFYEHMADPNTRVKQGEFEDHGREAFRWFLKEIRSKDVKTEHVELFDGRLRVEGRLLGVFNGQHVELHMILISVKVDGRWRVKMVIIH” gave a protease stability score of 1.52.

In turn, “SEEEEIVREALKIWFHAMITGDERTLNEMVDPNVRVDVDGKELIGRKHMVELLRRFKNITIRHWHIKHLDIQGDKIEIDTRLDVEVNGRQEILTEKFHARKVDGRWFLSTREER” gave a protease stability score of 2.19.

“SEEEEIVRHANHLFTHAMNTGDWRLLKELFDPHTKILIDGQEHHGWSIIYRELRHIRIDHVEMRIRSVHTQGNKAHVDGEIIVEGTVNGVTHKTSNRVNLIIRKVDGRWIVESIDIH” had a protease stability score of 1.55.

For the sequence “SEEEEIYHKLAEWSKRVLETGDWREWRKLADPNTRLHVHVNGRQLDHHGRELVLTIFLWLYKHLGVKHVDERDLDYYGNKIDIHVDDRYDGRTIHNRIILFIIDGKVTSTTVHIEHE”, the protease stability score is 1.38.

In turn, “SEEEEIYKEYAELMIHIIKTGDEDALRLLLDPNTQTFINGRNIHGMDEHIRHWRHFFKKFKNMRIEITRLEIQGDKVRIHMRIEQGDKILHLLFIIVIINGRNEEIEVRIHTQ” showed a protease stability score of 1.69.

Consider “SEEEEIYKRAHKFFADVFLTGNEKELEHMLDPNVRLHVNGQDHHGWTDVFRIFNFLGADHYDVKHLDIQGDKVDLHSEVDINGRTRRIIFHSLKVNGQWKITHVQVD”, for which the protease stability score worked out at 1.24.

With “SEEEEIYKRIADLFLQIFSTGDEDRLHRLADPDVKWEYGDKKNVGMKDVIHYFEHIWMHVERSDNTDVDLQGNKARVDMRSDIRIEINGRELRIKVSVLIIIVKFNGRWTVHSLRIE”, the protease stability score was 1.27.

On to “SEEEEKAKKWLEEVLRAEETGDEEKLLELADPNVRWIFNGVDVIGRKHFERNIRESLEKIPNMRIEHFHLHRMETIDGRIDMETEEDGIINGRDIRTRRRIIVVKVDGRWIIKSVHLI”, for which the protease stability score was determined as 0.637.

With “SEEEEKARRLSELITRSFLTGDEEELEELLDPNARNIYNGVIVHGREEVSRLFHEEWLRYGIDHVRLEDMHIDVQGDKVDFHIIMRSEFNGRVHHVRVEVHIEKVDGRWVMKRLELRFS”, the protease stability score is 0.977.

“SEEEEKAVKVTEEILHNLLTGDWERLAEMLDPDTWLHQGDKHRHGREQVLKHFSDFYNEIRIEDFKIHDITVQGEKAISHGHVKMRYGDKVRETSVRFVLIVIDGRIDQIEVHVH” registered a protease stability score of 1.8.

For the sequence “SEEEEKFHRFYKLLLEMILTGNWKEVWDLMDPNARLDVIIGDKSIHNHGWKVILEFMREIRIRHVHIKHMEVYNGRIHLDEHRDIHFNGRDIRSDVIIHAVVIDGRFHHERIEFL”, the protease stability score stood at 0.751.

Turning to “SEEEEKIKKLHTDWLHLLLTGDEDRLKQLMDPHAKISIEQGDFHLDLHGREDIIEFYWEERHRIDHLDIRVRHIEVWNGKIITKEENRIDFNGRKHVTEVDLEIEIVDGKFRSLHIRIH”, the protease stability score worked out at 1.02.

With “SEEEEKLKKILELLRHRILTGDEEFYSRLIDPNARVNIDGKTTHGREEMEHILRELNEDYGVKHHTVRSTEIFDGVNWIRGEFRVNGRSRTVEIIIWVYNGRLKSSEFRFD”, the protease stability score worked out at 1.39.

On to “SEEEEKRRKSAEDFMRSLVTGDEDDLSRLADPHVRLDINGKEHHGMEEFKRLLSEFWEEMGIKHVRIRRIDIQGNKAILHTEVDWNGRIHEVTIDVQTYNGRIKSVKVIIH”, for which the protease stability score was determined as 1.24.

“SEEEEKTRRILEELFELFLTGDEQRTLELFDPNMRFHLHYGDKELHLHGREEVAKFLHDHRHRVKNVKFHLKKEEVQGDKAILYIRVEIDGQEVYLNIEIHVIDGKLHEVVERIHEV” yielded a protease stability score of 2.25.

In turn, “SEEEELADIALREIIETLRTGNEELLDKLVDPHVKILFDGREFIGRKDYLRLLREIRIHHVTIEDMEVQGEKVHINMRVDGEINGRRNDYKVQLIALKFNGKWIIEHEHLH” yielded a protease stability score of 1.3.

“SEEEELAERFYEKFLRLARTGDEDELKRLFDPHVRHYVDGRELIGRELLVKFLIEWRVHDSEIREVRIQGDKLWFNTVIHGNFNGVETKQEMEVRSRKIDGQWFATEVQIK” had a protease stability score of 0.694.

The sequence “SEEEELAERMIRIWQKDIRTGNEESLSKFIDPNVRNEYGDKTHHGRHVFADVIRRILDELGVTNVHSRLTRMEIQGDKVRVDVQINIDGQEYRIEVHFEKVNGRWNVTSWNIR” registered a protease stability score of 0.698.

For “SEEEELALKLLRVLWHHLETGDEETLNHLLDPDTRWNVDGVNFHGMRDFVRHFRERLKHARLHSLHVHRFSMINGVMHFDGEVNEIYGDKTERYRVRIELVVVNGRWKELYLHKI”, the protease stability score was 1.55.

On to “SEEEELALRFWHELTHYRETGDEESLLKYVDPHVRLDVNGKDIHGMEEIARFLVEIRVKIETHVHDIKLINGKIHMDVRLHIEFDIDGKNVKRRHESRVIVRKVNGKWIIKTFELT”, for which the protease stability score stood at 0.53.

“SEEEELAMRIAREVLELWYTGDEDRLTELADPNTRVIFQYGDKEISFHGREWYSKIMLEWRIERVDLRSERAIGDKYELDVHFVGHINGKRHNYRFHIHMLVVNGKLKNIEVRVK” came in with a protease stability score of 2.2.

With “SEEEELAREAMRILIEAIVTGDEDEIRRLLDPHVRIEVHIGDKSIKNHGRESMVRILRWLGVDHIDIKRFRLEIQGEFLHLDLDTEFHFNGVTVRTRINNRSLKINGRWQTKEVKYFIE”, the protease stability score amounted to 1.27.

For the sequence “SEEEELARHAFELWTRSMLTGDEHTMEKLFDPNTRLDINGRDHVGRELFLEFIHRLLREWRFRDVKLEDVKSVNGVLFLKVRLDVEFDGRRYSLTVELIVTKINGKWHMTEIKMH”, the protease stability score came to 0.353.

“SEEEELARHIFELWIKTLRTGDEKLLRELADPHVQVILLVDGRHLENHGWEEFVRIFKEWRIHRVHVHDVKVFENRIHMDGTIDYEIGDKRFITKRIVDLVVINGRLKRLEIQIH”: the protease stability score was 2.66.

Regarding “SEEEELARHSIEVMIRLYETGDWDSSVDMADPHTRVHINGRDLIGREFYSEWSKEHLKRYKNATIILEDHEVQGNKVKVRIRIIVGDKESEIIFYILKINGRWIWHTVEVR”, the protease stability score was found to be 2.19.

On to “SEEEELARQVLELWIHWYQTGDEESFRKNIDPHTRFDINGKHLHGREHVSKHLHDRAREMRIHDVFIKDVRLQGEKARMDGVIDGTIGDKRHEFKVEVTVQSINGRIDHLEFRFR”, for which the protease stability score was found to be 1.18.

In turn, “SEEEELATEIFRKWIELLETGDEHTFRELADPDYRLIILYGDFIINDIGRERAIERWKQHLKQFDHWEIIIDRERVVNGVVHVDGILVLRINGREHNRRVKIELFIFDGRMKEVDIHID” yielded a protease stability score of 2.6.

In turn, “SEEEELAVKMWEIWLRSFLTGDETRLDQMMDPHAKLERIINGKRQHTHGWENVLKELIRLADELRVEHIHIRSEHRQGEKLDVKGEIDGDINGVRRRVEVDIHLVIVDGRIRHVKEVIR” displayed a protease stability score of 1.12.

On to “SEEEELDKKAFKLWIHSLRTGDEDLITELADPRVKMTIGDKEFHGREEFKHAMHELLKRVDHIKDVKLKHWDVINGRLHVIVEVNGNVDGRETYIETSMTSLKINGRWILQSWSVR”, for which the protease stability score was found to be 1.31.

With “SEEEELDRRITDLIVHARKTGDEEMWQRYADPHVRLFWFQGDYLLMIVGREDASKWMRHLLEELGIKHIEFKHIDIFDGRSHIDSRVKVNGKERETRHQFVVVNGRITEVREKID”, the protease stability score stood at 0.415.

The sequence “SEEEELEEFFIHLMIRMWDTGDFRTFKRLADPNVRLEVNGRHVVGREEVERLLRELLELLGADVIIHRDRDRDKFNGVIVVIIHGQIRQGDKFFDTHLHFVIEKVDGRWLLKSIHIEIR” came in with a protease stability score of 1.5.

For the sequence “SEEEELEERLTRYWLHAFWTGDWEHLKEMADPDARHRLHFENHTESVHGREYLVLIYVRIIRNLGFKHLEIDHVRVVDGVFRIHGILEVNGRKQRVHIIVVIVNGRLRELVLIFG”, the protease stability score stood at 1.41.

Regarding “SEEEELFEIAIRIFLHILHTGNEEDFHRFADPNMRMIIGDKEHHGWEEVFKWFEFVFRHARIKDTEIKSVRIINGRVHNEGRVNININGVEVIKEVHLVSEKVDGKWVLKRVEIR”, the protease stability score worked out at 1.52.
